Results published in the DeepSol protein solubility set.

Test: soluble on expression in E. coli; label from the status in PepcDB or PDB records

| Sequence | soluble on expression in E. coli |
| --- | --- |
| MSLSQRGLEALLRPKSIAVIGASMKPNRAGYLMMRNLLAGGFNGPVLPVTPAWKAVLGVLAWPDIASLPFTPDLAVLCTNASRNLALLEELGEKGCKTCIILSAPASQHEDLRACALRHNMRLLGPNSLGLLAPWQGLNASFSPVPIKRGKLAFISQSAAVSNTILDWAQQRKMGFSYFIALGDSLDIDVDELLDYLARDSKTSAILLYLEQLSDARRFVSAARSASRNKPILVIKSGRSPAAQRLLNTTAGMDPAWDAAIQRAGLLRVQDTHELFSAVETLSHMRPLRGDRLMIISNGAAPAALALDALWSRNGKLATLSEETCQKLRDALPEHVAISNPLDLRDDASSEHYIKTLDILLHSQDFDALMVIHSPSAAAPATESAQVLIEAVKHHPRSKYVSLLTNWCGEHSSQEARRLFSEAGLPTYRTPEGTITAFMHMVEYRRNQKQLRETPALPSNLTSNTAEAHLLLQQAIAEGATSLDTHEVQPILQAYGMNTLPTWIASDSTEAVHIAEQIGYPVALKLRSPDIPHKSEVQGVMLYLRTANEVQQAANAIFDRVKMAWPQARVHGLLVQSMANRAGAQELRVVVEHDPVFGPLIMLGEGGVEWRPEDQAVVALPPLNMNLARYLVIQGIKSKKIRARSALRPLDVAGLSQLLVQVSNLIVDCPEIQRLDIHPLLASGSEFTALDVTLDISPFEGDNESRLAVRPYPHQLEEWVELKNGERCLFRPILPEDEPQLQQFISRVTKEDLYYRYFSEINEFTHEDLANMTQIDYDREMAFVAVRRIDQTEEILGVTRAISDPDNIDAEFAVLVRSDLKGLGLGRRLMEKLITYTRDHGLQRLNGITMPNNRGMVALARKLGFNVDIQLEEGIVGLTLNLAQREESEGGSHHHHHH | soluble |
| QVQLVQSGAEVRKPGASVKVSCKASGDTFSSYAISWVRQAPGQGLEWMGGIIPIFGTANYAQAFQGRVTITANESTSTAYMELSSLRSEDTAIYYCARDNPTLLGSDYWGAGTLVTVSSASTKGPSVFPLAPCSRSTSGGTAALGCLVKDYFPEPVTVSWNSGALTSGVHTFPAVLQSSGLYSLSSVVTVPSSSLGTQTYICNVNHKPSNTKVDKRV | soluble |
| MRKIWGILFLCLTFMLVGCGKEEKPQEAFDTYAKAWNKQKFAEMYDQLSEKAKKDISKKEFTEKYEKIYSGIEVKNLKVEAGEVKEDKKDEGPIPFKVSMDTVGGKINFGHEAKMVKEKDGDKESWKVDWTPDFIFPGMTKDSKVRMQTTEPKRGEIYDRNGKGLATNGKASEIGLIPEKLGDTAPQTKETVAKLLNMSVEEIDQKLAAKWVKPGYLVPIGILPEGATQNTYIDLPGVSTKPVNVRTYPLGEAAAHLTGYIGKVNAEDLKTLQKKGYQADDPVGKAGLEQVLEEKLRGKKGGRVFVEDAQGKEIKNLAKTDAVDGENVTLTIDSAVQEKTYNEMKGEAGSSAAINPKSGETLALVSSPAYDPNIIARGTSKAQREAWNNDPKKPMTNRFTQLSVPGSVFKPITAAIGLETKTIDPKEELKIEGLKWTKDSSWGNYYVTRVKDANPIDFDKAMKYSDNIYFAQEALKIGKDKFMSEAKKFGFDEKLPIEYGFPASKIANDGIKNDIQMADTGYGQGQVLMTPLHLALTYAPIVNDGNIPSPYIIKTDKQPKVWKENVISKGNQDILKTAMTKVINDPDGTGKIAKIDGMTLAGKTGTAELKVSKEAEGKELGWFAAFDLNSPDMVITMMIEDVKGRGGSNIPAEKVKHVFQK | not soluble |
| MGSDKIHHHHHHMANISTFEVGYCLHPGCMALRGAGWKVCRFPARVWMLESHGKRWLWDTGYAQHFTDATRSGLFQLYRRMTPVHFETKDALIHQLHAQGIQPADIDGLIISHFHGDHIAGLQDFPTVPFICSALGWQQTRNLRGFAALKRAFVPALIPEHFEQSLQFVENFPLTDLPAALAPFTQGYVLPGSDKEIVLVPLPGHAVGHLGAFVLTETGWVLLASDAAWSPHSYREGRGPSRLANLVMDDPKAYYQTLDQLHQLHLNGQVEIRLCHEGDL | not soluble |
| MSNSRSILSQPEWRIVDQSSLGPTFHALQSFAMDDTLCTSIGKGESAATMRSWVHHNTIVLGIQDSRLPHLEEGISFLKENNFNVIVRNSGGLAVVLDEGVLNVSLLFQETEKGIDIDLGYDTMWHLIQEMLKDYDVTIEAKEIVGSYCPGSYDLSIRDQKFAGISQRRIRGGVAVQIYLCATGSGSERAALVRDFYNLAIQGEETRFTYPEIVPSTMASLSELLDETITVQDLMMRLLKTLQQFAPKLTPSQLTIDEIPLYETNLQRIIDRNNKALGLEK | not soluble |
| MSLKGYPFLDKANAPFVDRHVTKAGEIFYPWDGKRIDGFGLIGAPLSKSSISHSGASFAPTVIRKCLHAFSTYSVEEDLDLAQLKLTDLGDITMHVTDIVGSQARIEETMTKLLENEQNWQPIVLGGDHSISFPSIKAFASAKGTIGVIQFDAHHDLRNLEDGGPCNGTPFRSLLETGSLVGEHLVQIGIRDFSNSYPYRKYAEKHGVKVYTMKDVNARGLLTILDEAVAKLKRSVDVIYVSVDMDVLDQAHAPGCPAIGPGGMDSTTLLQGIFHLGKDSLVQGMDIVEVDPTLDFREMTSRAAAHVILNYLKGKCIKSEGHHHHHH | soluble |
| SGQTALAGGSSSTPTPQALYPDLSCPEGLEELLSAPPPDLGAQRRHGWNPKDCSENIEVKEGGLYFERRPVAQSTDGARGKRGYSRGLHAWEISWPLEQRGTHAVVGVATALAPLQTDHYAALLGSNSESWGWDIGRGKLYHQSKGPGAPQYPAGTQGEQLEVPERLLVVLDMEEGTLGYAIGGTYLGPAFRGLKGRTLYPAVSAVWGQCQVRIRYLGERRAEPHSLLHLSRLCVRHNLGDTRLGQVSALPLPPAMKRYLLYQ | not soluble |
| MENEQQQAQTAPSCRAGCGFFGASATEGYCSQCFKNTLKRQQDTVRLTSPVVSPSSMAATSSALKSEPSSVDMCMKAAVSVSDETAKMDCEDIINVCDQINDDSVTVAESTAPTTITVDVPVPVKKANRCHMCKKRVGLTGFSCRCGGLYCGDHRYDQAHNCQFDYKTMERETIRKNNPVVVSDKVQRI | soluble |
| MGSDKIHHHHHHMSEALELLGQDIVARAPGVLGHSVAFGELTIVARAASVIDTLTFLRDDAACRFHQLIDLTGVDYPERAARFDVVYHLLSLVKNHRIRLKVSTDEDTPVPSVTPVFPVADWFEREAFDMYGIFFDGHPDLRRILTDYGFHGHPLRKDFPMTGYVEVRYDDELKRVVYEPVKITEFRAFDFLSPWEGAKYALPGDEKAQ | not soluble |
| MKTLGYILMENGEKIDLEFFPEEAPKTVENFKKLAEQGFYDGVTFHRVIPGFVSQGGDPTGTGAGGPGYSIPCETDGNPHRHLVGSLSMAHAGRNTGGSQFFIVHEPQPHLDGVHTVFGKATSGIETVLNMRQGDVMKEVKVWEE | not soluble |
| HYNTEILKSIDNEWRKTQCMPREVCIDVGKEFGVATNTFFKPPCVSVYRCGGCCNSEGLQCMNTSTSYLSKTLFEITVPLSQGPKPVTISFANHTSCRCMSKLDVYRQVHSIIRR | soluble |
| MKIRIFVPQNKFMNREMLYNDLSGFLAMHFPCKVQKISINAGFTCPNRDGSVGYGGCTYCNNQTFNPAYCHTGKSVAQQLEEGKRFFVRKYPEMKYLAYFQAYTNTYGELEELKRKYEEALMVEDVVGLVIGTRPDCMPISLLDYLEDLGKRTFVLVEYGIESTDDETLRRINRGHTFAVSAEAVRKTAERGILVGGHIILGLPGEEREMLIRQAGVLSQLPLTTLKLHQLQLIKGTRMASEYVKEPEAFHLYTADEYVDLVIDYIEHLRPDIVLERFVSQSPKELLIAPDWGLKNYEFTDKVKKRMREKDAWQGKYYKY | not soluble |
| MGIHRLWKRFTIDCSGVRRGQTVLDLAGGTGDLTAKFSRLVGETGKVVLADINESMLKMGREKLRNIGVIGNVEYVQANAEALPFPDNTFDCITISFGLRNVTDKDKALRSMYRVLKPGGRLLVLEFSKPIIEPLSKAYDAYSFHVLPRIGSLVANDADSYRYLAESIRMHPDQDTLKAMMQDAGFESVDYYNLTAGVVALHRGYKLEHHHHHH | not soluble |
| MEPPSPVGNPEIPSEIPKNAEKTVYKYIDEQGIEIFIEDPIYVEENGNTMVYGNPYDPTTSSQEIYEEEIVDEEYIFQVDSLPSTSSSSAAAPPPSKRARLIKDGVAYPSNTVLLTNQSLEAKNATFLAKAGARREEKEPKKQIPMINKHGSILNRNLPGMTNMFKVMAESALAKTDEMIKQEAMNNTVEEVEKGRKLDNSSRFGLENEESDQDGQSDTPPPMERLGEADDFQPTTTTFDQWPLYSNRAIDFKGFSTYQKKNYFENWKILSSFKKVFSKNFQFLAKILKFISMRDPHRNSRNRRGKNIPSGKTRFYTETADGNLIRADDGKGRLKQWTKEFTYKIILKKYDNQVTRGGDEGRGQFQRKIYTGFKGAGRLPFSIVTYSWHAGRPWNFVPPVTSRQTVRRPNWEKKSYEKVNMTSMPQMVSAYYEGFNIYSHCIVSFDEATAIMLGATPIDTNKLVIIIVAGPKISRNFPIFRLCSSVPLGYRQNGTFVIDLKRMGHCLLELRRDDNGIWNKPSGFSRFYKISENGDAIRVDKAGKLPAGMDYDVKIASKRYEHTQVQKNFVRKIYTAKGKNSESFPGSPEYAVIVYYWKGEPIQFEPAFKQNGVRTESKEYSRYQQIADEEQEFVEATGSMDPVVENLQKNLAPSPPPLLKRVTFPPEPQQSTSSTSAENLHELKLQLIRREMQNQDRFSAVLDRADGLLARMEQRFGVEHHHHIVHQEQEEEVWDHEQIIEEEEVIVQDTMEY | not soluble |
| MGSDKIHHHHHHMTTKDISRPVCILGLGLIGGSLLRDLHAANHSVFGYNRSRSGAKSAVDEGFDVSADLEATLQRAAAEDALIVLAVPMTAIDSLLDAVHTHAPNNGFTDVVSVKTAVYDAVKARNMQHRYVGSHPMAGTANSGWSASMDGLFKRAVWVVTFDQLFDGTDINSTWISIWKDVVQMALAVGAEVVPSRVGPHDAAAARVSHLTHILAETLAIVGDNGGALSLSLAAGSYRDSTRVAGTDPGLVRAMCESNAGPLVKALDEALAILHEAREGLTAEQPNIEQLADNGYRSRIRYEARSGQRRAKESVSPTITSSRPVLRLHPGTPNWEKQLIHAETLGARIEVF | not soluble |
| DSPPSESLPSADSNRTHIVNGVGAFQSKVHPSIVTVLYFPGPVTSAISSDDQSFETSIVGHSVVIRPAPNVTAKTVGNINITTRAMNVSLTMRIAERPEDAATQLVFRALSEVEAFETRVAAEVERVRQEVEHEYERRHRNLEREVTHATEQAIARRMLMRHEGREFGAIARNEHNIIARVTRAQWIGPELYLYFEIQNRDSTPYHLAHVRLLGPTGESDHVDHLEFAGAGDVIDGSLGTVLSGQRGRGIVHVRDAARFAGKPFTFLVSEARERRAVSIGGITW | not soluble |
| GMTALRQDIDPNGLLEYSVVYTDRALNHMSKAFQEVMNDLLSNLKTVYNAEAAVIIPGSGTYGMEAVARQLTIDEDCLIIRNGWFSYRWTQILEKGKFAKSSTVLTAERTEDTEAPKPFAPVDIETAVAKIKEDKSAIVYAPHVETSSGIILSEEYIKALSEAVHSVGGLLVIDCIASGCVWLDMKELGIDVLISAPQKGWSSTPCAGLVMLSAAAIKKVESTESNCFSLDLKQWLTIMRAYENGGHAYHATMPTDSLRQFRDAILEAKEIGFDILRDAQWELGNRVRKVLTDKGIESVAAEGFEAPGVVVSYTERDDMHKGSAFAEAGLQIAAGVPLKVGEPDNFKTFRLGLFGLDKLTDIDGTVERFEKALDEVLAK | soluble |
| MNNFFKHTLETHTPQSMSKITSYIREDIKNSNIENGIVVVYCPHTTAGITINENADPDVVKDLIYGFEKVYPTNDHKYRHFEGNSHSHLKSSTVGVSQQLILHRGRLILGQWQDVYFCDFDGPRNRTFYVKILEGLEHHHHHH | not soluble |
